Measured values: patent US20150132314A1 (NOVIMMUNE S A, published 2015)

T1: human IL-17F homodimer (human, UniProt Q96PD4 31-163)
T1 sequence (looked up): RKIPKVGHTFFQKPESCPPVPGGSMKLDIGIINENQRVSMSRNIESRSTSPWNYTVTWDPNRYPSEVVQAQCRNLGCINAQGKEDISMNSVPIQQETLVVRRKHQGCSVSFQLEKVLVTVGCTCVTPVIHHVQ

T2: cynomolgus IL-17F homodimer, His-tagged (cynomolgus, UniProt G7P4V0 31-163)
T2 sequence: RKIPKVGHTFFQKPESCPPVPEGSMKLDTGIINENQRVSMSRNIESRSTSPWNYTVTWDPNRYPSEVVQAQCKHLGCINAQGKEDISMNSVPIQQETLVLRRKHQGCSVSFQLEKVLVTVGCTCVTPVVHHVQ


Experiments:
human IL-17F homodimer = target: T1, human IL-17F homodimer; test: cell-based or functional assay
[1] = target: T2, cynomolgus IL-17F homodimer, His-tagged; test: cell-based or functional assay

Row | Binder | IC50 (nM), IL-6 secretion by MEF cells stimulated with IL-17F (5 ng/ml) and mTNF-α (human IL-17F homodimer) [nM] | IC50 (nM), IL-6 secretion by MEF cells stimulated with IL-17F (5 ng/ml) and mTNF-α [1] [nM]
1 | 43G6 antibody (antibody, V domains shown) VH: EVQLVESGGGLVQPGGSLRLSCAASGFTFSSYSMNWVRQAPGKGLEWVSYISSGSSTIYYADSVKGRFTISRDNAKNSLYLQMNSLRDEDTAVYYCAREGYVSGTYYNYYYGMDVWGQGTTVTVSS VL: EIVLTQSPATLSLSPGERATLSCRASQSVSSYLAWYQQKPGQAPRLLIYDAPNRATGIPARFSGSGSGTDFTLTISSLEPEDFAVYYCQQRSNWSLTFGGGTKVEIK | 1.1 | 8.4
2 | 22F8 antibody (antibody, V domains shown) VH: EVQLLESGGGLVQPGGSLRLSCAASGFTFSSYAMNWVRQAPGKGLEWVSTISGRGGSIYYADSVKGRFTISRDNSKNTLYLQMNSLRAEDTAVYYCAKEEATWDFDYWGQGTTVTVSS VL: EIVLTQSPATLSLSPGERATLSCRASQSVSSFLAWFQQKPGQAPRLLIYDASNRATGIPARFSGSGSGTDFTLTISSLEPEDFAVYYCQQRSNWPPTFGQGTKVEIK | 2 | 10
3 | 2E12 antibody (antibody, V domains shown) VH: EVQLVESGGGLVQRGGSLRLSCAASGFTFSSYSMNWVRQAPGKGLEWISYISSSSSAIYYADSVKGRFTISRDNAKNSLYLQMNSLRDEDTAVYYCAREGYASGRYYNYYYGMDVWGQGTTVTVSS VL: EIVLTQSPATLSLSPGERATLSCRASQSVSSYLAWYQQKPGQAPRLLIYDASNRATGIPARFSVSGSGTDFTLTISSLEPEDFAVYYCQQRSSWSLTFGGGTKVEIK | 5.9 | 26
4 | 21B10 antibody (antibody, V domains shown) VH: EVQLVESGGGLVQPGGSLRLSCAASGFTFSSYSMNWVRQAPGKGLEWVSYISGGSSTIYYADSVKGRFTISRDNAKNSLYLQMNSLRDEDTAVYYCAREGYVSGTYYNYYYGMDVWGQGTTVTVSS VL: EIVLTQSPATLSLSPGERATLSCRASQSVSSYLAWYQQKPGQAPRLLIYDAPNRATGIPARFSGSGSGTDFTLTISSLEPEDFAVYYCQQRSNWSLTFGGGTKVEIK | 2 | 8.7
5 | 5D3 antibody (antibody, V domains shown) VH: EVQLVESGGGLVQPGRSLRLSCAASGFTFDDYAMHWVRQAPGKGLEWVSGISWNSGSRGYADSVKGRFTISRDNAKNSLYLQMNSLRAEDTALYYCAKDMVYALDVWGQGTTVTVSS VL: EIVLTQSPGTLSLSPGERATLSCRASQSFSGSYLAWYQQKPGQAPRLLIYDTSSRATGIPDRFSGSGSGTDFTLTISRLEPEDFAVYYCQQYGTWTFGQGTKVEIK | 0.5 | 12
6 | 1F1 antibody (antibody, V domains shown) VH: EVQLLESGGGLVQPGGSLRLSCAASGFTFSSYVMSWVRQVPGKGLEWVSAISGRGGNTFYADSVKGRFTISRDNSKNTLYLQMDSLRAEDTAVYYCAKDDRRIAAGSFDYWGQGTTVTVSS VL: AIQLTQSPSSLSASVGDRVTITCRASQGISSALAWYQQKPGKAPKLLIYDVSSLESGVPSRFSGSGSGTDFTLTISSLQPEDFATYYCQQFNSYPLTFGGGTKVEIK | 1.1 | 11
7 | 11C5 antibody (antibody, V domains shown) VH: QVQLVQSGAEVKKPGASVKVSCKASGYTFTIYYLHWVRQAPGQGLEWMGIINPSGGRTNYAQKFQGRVTMTRDPSTNTVYMELSSLTSEDAAVYYCARGEFSSGWLDYWGQGTTVTVSS VL: DIQMTQSPSSVSASVGDRVTITCRASQGISSWLAWYQHKPGKAPKLLIYAASSLQSGVPSRFSGSGSGTDFTLTISSLQPEDFATYYCQQANSFPLTFGGGTKVEIK | 0.4 | 2.9
8 | 28B11 antibody (antibody, V domains shown) VH: QVQLVESGGGLVKPGGSLRLSCAASGFTFSNYYMTWIRQAPGKGLEWISYISSTGGNIYYADSVKGRFTISRDNAQNSLYLQMNSLRAEDTAVYYCARDGGVIISTAMFDYWGQGTTVTVSS VL: AIQLTQSPSSLSASVGDRVTITCRASQGISSALAWYQQKPGKAPKLLIYDASSLESGVPSRLSGSGSGTDFTLTISSLQPEDFATYYCQQFNSYPLTFGGGTKVEIK | 1.2 | 6.3
9 | 5E12 antibody (antibody, V domains shown) VH: QVQLVQSGGGLVQPGRSLRLSCAASGFTFDDYAMHWVRQAPGKGLEWVSGISWNSGTIGYADSVKGRFTISRDNAKNSLYLQMNSLRAEDTALYYCAKELYISDWDSYSYGMDVWGQGTTVTVSS VL: not shown |  | 22
10 | 41B10 antibody (antibody, V domains shown) VH: not shown VL: DIQMTQSPSSLSASVGDRVTITCRASQGISSWLAWYQQKPEKAPKSLIYAASSLQSGVPSRFSGSGSGTDFTLTISSLQPEDFATYYCQQYNSYPITFGQGTRLEIK |  | 18
